Laboratory results from patent US20240116985A1 (published 2024).
One block for each binder: values may come before it. Starred links: 1 amine or outer side, 2 acyl side, 3 side chain; linkers in the order of their positions; H or OH if unused. Positions of bridges follow the written chain, without caps; N, C: chain ends. Non-standard residues stand in square brackets, D forms with d. Primed or numbered codes have the meaning given here. PyrS2″ = (S)-3-amino-1-((pent-4-en-1-yloxy)carbonyl)pyrrolidine-3-carboxylic acid (stapling residue), C=CCCCOC(=O)N1CC[C@@](N[*:1])(C(=O)[*:2])C1; B5(4) = 2,2-bis(4-pentenyl)glycine = 2-amino-2-(pent-4-en-1-yl)hept-6-enoic acid (stitching residue), C=CCCCC(CCCC=C)(N[*:1])C(=O)[*:2]; B5(5) = 2,2-bis(4-pentenyl)glycine, 2-amino-2-(pent-4-en-1-yl)hept-6-enoic acid (stitching residue), C=CCCCC(CCCC=C)(N[*:1])C(=O)[*:2]; B5(21) = 2-amino-2-(pent-4-en-1-yl)hept-6-enoic acid, bis(4-pentenyl)glycine (stitching residue), C=CCCCC(CCCC=C)(N[*:1])C(=O)[*:2]; (NMe2)GlnR(3) = [NMe2]GlnR, N5,N5-dimethyl-L-glutamine, CN(C)C(=O)CC[C@H](N[*:1])C(=O)[*:2]; (NHCyBu)AsnR = N4-cyclobutyl-L-asparagine, O=C(C[C@H](N[*:1])C(=O)[*:2])NC1CCC1; (NHnPr)AsnR = N4-propyl-L-asparagine, CCCNC(=O)C[C@H](N[*:1])C(=O)[*:2]; (NHMe)AsnR = N4-methyl-L-asparagine, CNC(=O)C[C@H](N[*:1])C(=O)[*:2]; Phe(3-COOH) = N[C@@H](Cc1cccc(C(=O)O)c1)C(=O)O; 2F3MeF = Cc1cccc(C[C@H](N[*:1])C(=O)[*:2])c1F; Phe(2-CF3) = N[C@@H](Cc1ccccc1C(F)(F)F)C(=O)O; Bta = N[C@@H](Cc1csc2ccccc12)C(=O)O; αAllylPro = C=CC[C@@]1(C(=O)O)CCCN1; tBuAla = CC(C)(C)C[C@H](N)C(=O)O; 3Thi = N[C@@H](Cc1ccsc1)C(=O)O; S8 = C=CCCCCCC[C@](C)(N)C(=O)O; Nle = CCCC[C@H](N)C(=O)O; Aib = CC(C)(N)C(=O)O

Tests used:
[1] = target: T1, full-length beta-Catenin (Uniprot ID P35222) (Homo sapiens (Human), UniProt P35222 1-781); assay: fluorescence polarization competition; full-length beta-catenin with 5FAM-labeled TCF4 residues 10-53 probe as competitor
T1 construct: also called bCat; B-Catenin
T1 sequence: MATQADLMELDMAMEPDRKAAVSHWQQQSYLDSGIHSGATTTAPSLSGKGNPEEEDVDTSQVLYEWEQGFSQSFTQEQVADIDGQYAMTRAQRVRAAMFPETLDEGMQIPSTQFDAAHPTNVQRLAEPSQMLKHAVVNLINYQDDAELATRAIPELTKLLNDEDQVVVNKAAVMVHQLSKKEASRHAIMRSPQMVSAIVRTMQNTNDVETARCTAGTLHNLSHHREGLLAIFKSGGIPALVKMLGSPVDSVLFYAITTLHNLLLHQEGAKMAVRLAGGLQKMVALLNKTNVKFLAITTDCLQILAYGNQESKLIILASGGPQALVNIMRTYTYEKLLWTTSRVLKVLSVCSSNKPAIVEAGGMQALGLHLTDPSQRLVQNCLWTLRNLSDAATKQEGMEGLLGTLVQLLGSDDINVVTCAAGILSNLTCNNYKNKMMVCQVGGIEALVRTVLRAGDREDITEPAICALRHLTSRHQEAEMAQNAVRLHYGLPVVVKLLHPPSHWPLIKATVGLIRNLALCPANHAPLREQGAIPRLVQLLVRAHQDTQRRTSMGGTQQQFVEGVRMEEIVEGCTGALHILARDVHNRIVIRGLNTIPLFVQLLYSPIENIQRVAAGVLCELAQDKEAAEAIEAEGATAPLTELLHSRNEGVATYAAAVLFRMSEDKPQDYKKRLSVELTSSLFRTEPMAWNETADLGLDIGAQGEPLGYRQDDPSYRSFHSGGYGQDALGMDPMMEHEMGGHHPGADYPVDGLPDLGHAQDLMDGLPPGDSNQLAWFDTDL
Experimental: The plate was incubated protected from light for 60 minutes at 20° C. prior to read. Reads were performed on a CLARIOstar plate reader (BMG Labtech) in duplicate, and data were fitted to a 1:1 binding model with hill slope using an in-house script. All provided concentrations are final concentrations.

[2] = target: T2, B-cat-Halo (UniProt P35222 1-781, HaloTag NanoBRET 618 Ligand bound in the assay); assay: cell-based or functional assay
T2 sequence (looked up): T1 sequence

IC50 [1]: 5000 nM
Binder: Ac-[αAllylPro]DA[B5(21)][(NHnPr)AsnR]DAAFV[S8]F[Bta]Q-NH2 (staple 1-4, 4-11) [I-537]

NanoBRET Abs IC50 [2]: 10400 nM
Binder: Ac-[αAllylPro]D[tBuAla][B5(4)]D[Phe(3-COOH)][Aib]AF[Nle][PyrS2″][3Thi][Bta][(NHEt)GlnR]-NH2 (staple 1-4, 4-11) [I-2552]

IC50 [1]: 5000 nM
Binder: Ac-[αAllylPro]DA[B5(21)][(NHCyBu)AsnR]DAAFV[S8]F[Bta]Q-NH2 (staple 1-4, 4-11) [I-539]

NanoBRET Abs IC50 [2]: 9800 nM
Binder: Ac-[αAllylPro]D[tBuAla][B5(4)]D[Phe(3-COOH)][Aib]AF[Nle][PyrS2″][3Thi][Bta][(NMe2)GlnR(3)]-NH2 (staple 1-4, 4-11) [I-2551]

IC50 [1]: 71 nM
B1: I-549 (peptide)
peptide: XDIXDDAAFNXFXQ
modifications: not fully specified; N-terminal Ac; PL3 at 1; B5 at 4; S8 at 11; 2OMeF at 12; BztA at 13; C-terminal NH2; staples PL3(1)-B5(4) and B5(4)-S8(11) by olefin metathesis
notes: It has the same description as I-550 and is the earlier eluting HPLC peak (staple isomer composition)

IC50 [1]: 81 nM
Binder: Ac-[αAllylPro]DL[B5(5)]DDAAFQ[S8]F[Bta]H-NH2 (staple 1-4, 4-11) [I-560]

IC50 [1]: 34 nM
B2: I-561 (peptide)
peptide: XDLXDDAAFQXFXH
modifications: not fully specified; N-terminal Ac; PL3 at 1; B5 at 4; S8 at 11; BztA at 13; C-terminal NH2; staples PL3(1)-B5(4) and B5(4)-S8(11) by olefin metathesis
notes: It has the same description as I-560 and is the later eluting HPLC peak (staple isomer composition)

IC50 [1]: 56 nM
B3: I-558 (peptide)
peptide: XDLXDDAAFQXFXQ
modifications: not fully specified; N-terminal Ac; PL3 at 1; B5 at 4; S8 at 11; BztA at 13; C-terminal NH2; staples PL3(1)-B5(4) and B5(4)-S8(11) by olefin metathesis

IC50 [1]: 61 nM
B4: I-553 (peptide)
peptide: XDIXDDAAFNXFXH
modifications: not fully specified; N-terminal Ac; PL3 at 1; B5 at 4; S8 at 11; 2OMeF at 12; BztA at 13; C-terminal NH2; staples PL3(1)-B5(4) and B5(4)-S8(11) by olefin metathesis
notes: It has the same description as I-554 and is the earlier eluting HPLC peak (staple isomer composition)

IC50 [1]: 51 nM
Binder: Ac-[αAllylPro]DL[B5(5)]DDAAFN[S8]F[Bta]Q-NH2 (staple 1-4, 4-11) [I-562]

IC50 [1]: 27.5 nM
B5: I-554 (peptide)
peptide: XDIXDDAAFNXFXH
modifications: not fully specified; N-terminal Ac; PL3 at 1; B5 at 4; S8 at 11; 2OMeF at 12; BztA at 13; C-terminal NH2; staples PL3(1)-B5(4) and B5(4)-S8(11) by olefin metathesis

IC50 [1]: 43 nM
B6: I-559 (peptide)
peptide: XDLXDDAAFQXFXQ
modifications: not fully specified; N-terminal Ac; PL3 at 1; B5 at 4; S8 at 11; BztA at 13; C-terminal NH2; staples PL3(1)-B5(4) and B5(4)-S8(11) by olefin metathesis
notes: It has the same description as I-558 and is the later eluting HPLC peak (staple isomer composition)

NanoBRET Abs IC50 [2]: 3500 nM
B7: I-2547 (peptide)
peptide: Ac-[αAllylPro]D[tBuAla][B5(4)]D[Phe(3-COOH)]AAF[MorphGln][PyrS2″][2F3MeF][Bta][MorphGln]-NH2
modifications: staple 1-4, 4-11; not fully specified; printed as Ac-PL3-Asp-Npg-B5-Asp-3COOHF-Ala-Ala-Phe-MorphGln-PyrS2-2F3MeF-BztA-MorphGln-NH2

IC50 [1]: 5000 nM
Binder: Ac-[αAllylPro]DA[B5(21)][(NHMe)AsnR]DAAFV[S8]F[Bta]Q-NH2 (staple 1-4, 4-11) [I-540]

NanoBRET Abs IC50 [2]: 4000 nM
B8: I-2545 (peptide)
peptide: Ac-[αAllylPro]D[tBuAla][B5(4)]D[Phe(3-COOH)]AAF[Me2Gln][PyrS2″][Phe(2-CF3)][Bta][MorphGln]-NH2
modifications: staple 1-4, 4-11; not fully specified; printed as Ac-PL3-Asp-Npg-B5-Asp-3COOHF-Ala-Ala-Phe-Me2Gln-PyrS2-2F3MeF-BztA-MorphGln-NH2
